Test system: T1, SbfI restriction endonuclease (R.SbfI) (Streptomyces species Bf-61)
T1 sequence: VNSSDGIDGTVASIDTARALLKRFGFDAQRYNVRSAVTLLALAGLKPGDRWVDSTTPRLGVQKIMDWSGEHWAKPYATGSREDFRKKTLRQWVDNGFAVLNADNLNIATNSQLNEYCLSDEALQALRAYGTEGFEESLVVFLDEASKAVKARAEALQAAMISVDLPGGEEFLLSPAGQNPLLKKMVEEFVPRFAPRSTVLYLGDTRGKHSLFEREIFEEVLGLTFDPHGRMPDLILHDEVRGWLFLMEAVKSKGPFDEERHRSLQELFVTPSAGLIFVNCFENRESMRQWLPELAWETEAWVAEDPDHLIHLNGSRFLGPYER
Assay: cleavage_in_vitro
Conditions: recombinant cell extract, serial dilutions 1x to 1/64; yield more than about 10^5 units per gram wet E. coli cells; recognition sequence not given

## lambda DNA (printed as "I DNA") restriction substrate
  activity (U/g wet cells): 100000

From patent US20050064433
